Assay results from article PMC7138024 (Journal of natural products, 2014).

Biological target: cruzain (Trypanosoma cruzi, UniProt P25779)
Assay type: biochemical
Conditions: read-out: IC50 (μM) cruzain; triplicate; phosphate buffer pH 6.3, 37 °C

Chain of cruzain (P25779 123-467): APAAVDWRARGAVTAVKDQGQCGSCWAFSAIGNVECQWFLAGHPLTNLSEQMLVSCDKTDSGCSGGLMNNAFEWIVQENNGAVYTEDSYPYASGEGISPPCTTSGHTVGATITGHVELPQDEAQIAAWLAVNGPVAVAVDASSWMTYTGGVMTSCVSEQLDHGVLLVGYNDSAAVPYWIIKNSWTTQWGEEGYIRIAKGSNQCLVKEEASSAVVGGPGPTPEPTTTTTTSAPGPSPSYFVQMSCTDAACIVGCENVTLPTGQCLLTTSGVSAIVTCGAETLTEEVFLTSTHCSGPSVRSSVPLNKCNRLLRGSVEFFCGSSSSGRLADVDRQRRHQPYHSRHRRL

B1: cystatin (protein)
chain: SEDRSRLLGAPVPVDENDEGLQRALQFAMAEYNRASNDKYSSRVVRVISAKRQLVSGIKYILQVEIGRTTCPKSSGDLQSCEFHDEPEMAKYTTCTFVVYSIPWLNQIKLLESKCQ
modifications: two disulfides; Limits are the mature chain
B1 was tested, and the IC50 was 0.0085 ± 0.025 µM.
